Assay results: paper PMC9408933, “Discovery of the Key Mutation Site Influencing the Thermostability of Thermomyces lanuginosus Lipase by Rosetta Design Programs” (International Journal of Molecular Sciences, 2022)

Substrate: CCCCCCCCCCCCCCCC(=O)Oc1ccc([N+](=O)[O-])cc1
Test: p-nitrophenol release, Michaelis-Menten fit
Format: biochemical, Thermomyces lanuginosus
Settings: 37 °C, pH 9.0, 100 mM Tris-HCl, pNPP 0.08-10.00 mM, apparent Km
Description: p-nitrophenol release, Michaelis-Menten fit on TLL (Thermomyces lanuginosus lipase)

B1: TLL (Thermomyces lanuginosus lipase) (Thermomyces lanuginosus) (protein)
chain: EVSQDLFNQFNLFAQYSAAAYCGKNNDAPAGTNITCTGNACPEVEKADATFLYSFEDSGVGDVTGFLALDNTNKLIVLSFRGSRSIENWIGNLNFDLKEINDICSGCRGHDGFTSSWRSVADTLRQKVEDAVREHPDYRVVFTGHSLGGALATVAGADLRGNGYDIDVFSYGAPRVGNRAFAEFLTVQTGGTLYRITHTNDIVPRLPPREFGYSHSSPEYWIKSGTLVPVTRNDIVKIEGIDATGGNNQPNIPDIPAHLWYFGLIGTCL
notes: N-terminal His-tag, secreted from Pichia pastoris GS115 (pPIC9K), Ni-NTA purified
B1 gave a Km of 160 ± 30 µM, a Vmax of 297 µmol/min/mg and a kcat of 850 ± 11.8 s⁻¹. It also gave a kcat/Km of 5.31e+06 ± 74000 M⁻¹ s⁻¹.
